The target in data set [1] is membrane-associated tissue factor (Innovin, Dade) (UniProt P13726).
Data set [2] has as its target T1, membrane-associated tissue factor (Innovin, Dade), P13726.
T1 chain: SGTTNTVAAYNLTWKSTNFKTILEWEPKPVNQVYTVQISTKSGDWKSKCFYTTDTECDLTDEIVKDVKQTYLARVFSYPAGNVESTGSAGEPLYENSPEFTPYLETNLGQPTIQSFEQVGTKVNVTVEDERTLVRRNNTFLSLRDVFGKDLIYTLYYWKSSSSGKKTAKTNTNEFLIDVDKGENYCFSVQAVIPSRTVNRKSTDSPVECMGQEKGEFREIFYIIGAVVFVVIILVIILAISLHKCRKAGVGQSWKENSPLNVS

Changes are numbered by the printed parent chain. Names and notes keep the numbering of the source.

Regarding Factor VII mutant Q11E33I34F35, the “activity in the competitive assay of Example 6” value (“activity” below) in data set [1] was “displayed similar activity as the Q11E33F34I35 mutant”.

B1: factor VII mutant Q11E33D36 (protein)
chain: ANAFLEELRQGSLERECKEEQCSFEEAREIFEDADRTKLFWISYSDGDQCASSPCQNGGSCKDQLQSYICFCLPAFEGRNCETHKDDQLICVNENGGCEQYCSDHTGTKRSCRCHEGYSLLADGVSCTPTVEYPCGKIPILEKRNASKPQGRIVGGKVCPKGECPWQVLLLVNGAQLCGGTLINTIWVVSAAHCFDKIKNWRNLIAVLGEHDLSEHDGDEQSRRVAQVIIPSTYVPGTTNHDIALLRLHQPVVLTDHVVPLCLPERTFSERTLAFVRFSLVSGWGQLLDRGATALELMVLNVPRLMTQDCLQQSRKVGDSPNITEYMFCAGYSDGSKDSCKGDSGGPHATHYRGTWYLTGIVSWGQGCATVGHFGVYTRVSQYIEWLQKLMRSEPRPGVLLRAPFP
With B1, the “activity” value in data set [2] is recorded as “had 70% the activity of the Q11E33 mutant”.

B2: factor VII F5K (protein)
chain: B1 chain with F4K, Q10P, E32K, D35E
With B2, the “activity” value in data set [2] is reported as 33% of the activity of wild type factor VII.

Values taken from patent US7220837.
